Laboratory results reported in publication PMC4666388.

Target: GST-HP1α (full-length human heterochromatin protein 1 α with N-terminal GST) (human) (UniProt P45973)
Assay: pull-down; GST-HP1 anchored on GSH-Sepharose (80 pmol), 1.2 μg native oligo-nucleosomes from HeLa; absence of MgCl2; 50 mM NaCl, 20 mM Tris-HCl pH 7.4, room temperature 30 min; H3K9me3 and H4 detected by western blot

UniProt P45973, sequence (P45973 whole entry): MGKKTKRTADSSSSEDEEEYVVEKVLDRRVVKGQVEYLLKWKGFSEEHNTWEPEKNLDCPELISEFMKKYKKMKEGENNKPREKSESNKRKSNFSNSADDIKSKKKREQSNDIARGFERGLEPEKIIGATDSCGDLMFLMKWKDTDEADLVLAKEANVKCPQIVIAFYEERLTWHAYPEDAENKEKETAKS

percent of input bound: 18 % of input
Substance: native oligo-nucleosomes prepared from HeLa cell nuclei (H3K9me3-nucleosomes detected) (complex)
